Assay results as given in the Human Domainome abundance scans (Beltran et al. 2025).
± gives the uncertainty stated by the source.

B1: Zinc finger MYM-type protein 3, residues 589 to 668; numbered along this chain, Q14202 (parent)
chain: LSCHYCHSLFSGKPEVLDWQDQVFQFCCRDCCEDFKRLRGVVSQCEHCRQEKLLHEKLRFSGVEKSFCSEGCVLLYKQDF

Variants of: B1
Assay: abundance fitness (aPCA) (normalised: wild type 0, dead -1); higher = more abundant; growth selection in yeast, the domain comes from the species named
Details: Homo sapiens

Variant | abundance fitness
LSCHYCHSLFSGKPEVLDWQDQVFQFCNRDCCEDFKRLRGVVSQCEHCRQEKLLHEKLRFSGVEKSFCSEGCVLLYKQDF [C28N] | -0.16 ± 0.12
LSCHYCHSLFSGKPEVLDWQDQVFQFCRRDCCEDFKRLRGVVSQCEHCRQEKLLHEKLRFSGVEKSFCSEGCVLLYKQDF [C28R] | 0.074 ± 0.039
LSCHYCHSLFSGKPEVLDWQDQVFQFCIRDCCEDFKRLRGVVSQCEHCRQEKLLHEKLRFSGVEKSFCSEGCVLLYKQDF [C28I] | -0.703 ± 0.13
LSCHYCHSLFSGKPEVLDWQDQVFQFCHRDCCEDFKRLRGVVSQCEHCRQEKLLHEKLRFSGVEKSFCSEGCVLLYKQDF [C28H] | -0.081 ± 0.11
LSCHYCHSLFSGKPEVLDWQDQVFQFCARDCCEDFKRLRGVVSQCEHCRQEKLLHEKLRFSGVEKSFCSEGCVLLYKQDF [C28A] | 0.017 ± 0.041
LSCHYCHSLFSGKPEVLDWQDQVFQFCYRDCCEDFKRLRGVVSQCEHCRQEKLLHEKLRFSGVEKSFCSEGCVLLYKQDF [C28Y] | -0.557 ± 0.15
LSCHYCHSLFSGKPEVLDWQDQVFQFCDRDCCEDFKRLRGVVSQCEHCRQEKLLHEKLRFSGVEKSFCSEGCVLLYKQDF [C28D] | 0.041 ± 0.062
LSCHYCHSLFSGKPEVLDWQDQVFQFCGRDCCEDFKRLRGVVSQCEHCRQEKLLHEKLRFSGVEKSFCSEGCVLLYKQDF [C28G] | 0.08 ± 0.038
LSCHYCHSLFSGKPEVLDWQDQVFQFCPRDCCEDFKRLRGVVSQCEHCRQEKLLHEKLRFSGVEKSFCSEGCVLLYKQDF [C28P] | -0.607 ± 0.076
LSCHYCHSLFSGKPEVLDWQDQVFQFCMRDCCEDFKRLRGVVSQCEHCRQEKLLHEKLRFSGVEKSFCSEGCVLLYKQDF [C28M] | 0.129 ± 0.046
LSCHYCHSLFSGKPEVLDWQDQVFQFCERDCCEDFKRLRGVVSQCEHCRQEKLLHEKLRFSGVEKSFCSEGCVLLYKQDF [C28E] | -0.228 ± 0.063
LSCHYCHSLFSGKPEVLDWQDQVFQFCQRDCCEDFKRLRGVVSQCEHCRQEKLLHEKLRFSGVEKSFCSEGCVLLYKQDF [C28Q] | 0.087 ± 0.046
LSCHYCHSLFSGKPEVLDWQDQVFQFCWRDCCEDFKRLRGVVSQCEHCRQEKLLHEKLRFSGVEKSFCSEGCVLLYKQDF [C28W] | -0.973 ± 0.094
LSCHYCHSLFSGKPEVLDWQDQVFQFCVRDCCEDFKRLRGVVSQCEHCRQEKLLHEKLRFSGVEKSFCSEGCVLLYKQDF [C28V] | -0.321 ± 0.043
LSCHYCHSLFSGKPEVLDWQDQVFQFCSRDCCEDFKRLRGVVSQCEHCRQEKLLHEKLRFSGVEKSFCSEGCVLLYKQDF [C28S] | -0.021 ± 0.044
LSCHYCHSLFSGKPEVLDWQDQVFQFCKRDCCEDFKRLRGVVSQCEHCRQEKLLHEKLRFSGVEKSFCSEGCVLLYKQDF [C28K] | 0.105 ± 0.063
LSCHYCHSLFSGKPEVLDWQDQVFQFCFRDCCEDFKRLRGVVSQCEHCRQEKLLHEKLRFSGVEKSFCSEGCVLLYKQDF [C28F] | -0.83 ± 0.12

Variant | abundance fitness
LSCHYCHSLFSGKPEVLDWQDQVFQFCLRDCCEDFKRLRGVVSQCEHCRQEKLLHEKLRFSGVEKSFCSEGCVLLYKQDF [C28L] | -0.758 ± 0.059
LSCHYCHSLFSGKPEVLDWQDQVFQFCTRDCCEDFKRLRGVVSQCEHCRQEKLLHEKLRFSGVEKSFCSEGCVLLYKQDF [C28T] | 0.11 ± 0.047
LSCHYCHSLFSGKPEVLDWQDQVFQFCCNDCCEDFKRLRGVVSQCEHCRQEKLLHEKLRFSGVEKSFCSEGCVLLYKQDF [R29N] | 0.206 ± 0.075
LSCHYCHSLFSGKPEVLDWQDQVFQFCCEDCCEDFKRLRGVVSQCEHCRQEKLLHEKLRFSGVEKSFCSEGCVLLYKQDF [R29E] | 0.013 ± 0.045
LSCHYCHSLFSGKPEVLDWQDQVFQFCCPDCCEDFKRLRGVVSQCEHCRQEKLLHEKLRFSGVEKSFCSEGCVLLYKQDF [R29P] | 0.068 ± 0.056
LSCHYCHSLFSGKPEVLDWQDQVFQFCCMDCCEDFKRLRGVVSQCEHCRQEKLLHEKLRFSGVEKSFCSEGCVLLYKQDF [R29M] | 0.235 ± 0.05
LSCHYCHSLFSGKPEVLDWQDQVFQFCCIDCCEDFKRLRGVVSQCEHCRQEKLLHEKLRFSGVEKSFCSEGCVLLYKQDF [R29I] | 0.014 ± 0.055
LSCHYCHSLFSGKPEVLDWQDQVFQFCCHDCCEDFKRLRGVVSQCEHCRQEKLLHEKLRFSGVEKSFCSEGCVLLYKQDF [R29H] | 0.275 ± 0.058
LSCHYCHSLFSGKPEVLDWQDQVFQFCCCDCCEDFKRLRGVVSQCEHCRQEKLLHEKLRFSGVEKSFCSEGCVLLYKQDF [R29C] | 0.08 ± 0.05
LSCHYCHSLFSGKPEVLDWQDQVFQFCCWDCCEDFKRLRGVVSQCEHCRQEKLLHEKLRFSGVEKSFCSEGCVLLYKQDF [R29W] | -0.049 ± 0.047
LSCHYCHSLFSGKPEVLDWQDQVFQFCCFDCCEDFKRLRGVVSQCEHCRQEKLLHEKLRFSGVEKSFCSEGCVLLYKQDF [R29F] | 0.095 ± 0.056
LSCHYCHSLFSGKPEVLDWQDQVFQFCCKDCCEDFKRLRGVVSQCEHCRQEKLLHEKLRFSGVEKSFCSEGCVLLYKQDF [R29K] | 0.002 ± 0.046
LSCHYCHSLFSGKPEVLDWQDQVFQFCCTDCCEDFKRLRGVVSQCEHCRQEKLLHEKLRFSGVEKSFCSEGCVLLYKQDF [R29T] | -0.002 ± 0.046
LSCHYCHSLFSGKPEVLDWQDQVFQFCCADCCEDFKRLRGVVSQCEHCRQEKLLHEKLRFSGVEKSFCSEGCVLLYKQDF [R29A] | 0.069 ± 0.042
LSCHYCHSLFSGKPEVLDWQDQVFQFCCSDCCEDFKRLRGVVSQCEHCRQEKLLHEKLRFSGVEKSFCSEGCVLLYKQDF [R29S] | 0.009 ± 0.044
LSCHYCHSLFSGKPEVLDWQDQVFQFCCDDCCEDFKRLRGVVSQCEHCRQEKLLHEKLRFSGVEKSFCSEGCVLLYKQDF [R29D] | 0.082 ± 0.053
LSCHYCHSLFSGKPEVLDWQDQVFQFCCGDCCEDFKRLRGVVSQCEHCRQEKLLHEKLRFSGVEKSFCSEGCVLLYKQDF [R29G] | 0.008 ± 0.04
